Results taken from publication PMC2715101, “Dimerization of Translationally Controlled Tumor Protein Is Essential For Its Cytokine-Like Activity” (PLoS ONE, 2009).

Experiments:
[1] = target: Del-N35TCTP (residues 35-172) (rat) (UniProt P63029); assay: SEC; Superdex 200 HR 10/30, 50 mM sodium phosphate pH 7.0, 150 mM NaCl, calibrated with molecular size markers
[2] = target: Del-N35TCTP (residues 35-172) (rat) (UniProt P63029); assay: cross-linking; sulfhydryl crosslinkers BMOE (five-fold molar excess, 2 h) or BM(PEO)3 (five-fold molar excess, 1 h), room temperature, proteins first reduced with 20 mM DTT; each protein alone and their 1/2:1/2 molar mixture; reducing SDS-PAGE
[3] = target: Del-N35TCTP (residues 35-172) (rat) (UniProt P63029); assay: non-reducing SDS-PAGE; proteins completely reduced with 20 mM DTT, transferred to 50 mM Tris pH 7.5, 1 mM EDTA, then oxidized with 0.1, 1 or 10 mM H2O2
[4] = target: Del-N35TCTP (residues 35-172) (rat) (UniProt P63029); assay: non-reducing SDS-PAGE; purified proteins boiled with or without β-ME, 15% gel, coomassie brilliant blue; dimer by intermolecular disulfide bond
[5] = target: Del-N35TCTP (residues 35-172) (rat) (UniProt P63029)
[6] = target: rabbit Fc protein (Fc) (rabbit); assay: native gel or EMSA; Fc fusion proteins on a native gel, apparent molecular weights by a molecular size marker
Del-N35TCTP-C172S (rat) [7] = target: Del-N35TCTP-C172S (rat) (UniProt P63029); assay: SEC; Superdex 200 HR 10/30, 50 mM sodium phosphate pH 7.0, 150 mM NaCl, calibrated with molecular size markers
Del-N35TCTP-C172S (rat) [8] = target: Del-N35TCTP-C172S (rat) (UniProt P63029)
[9] = target: Fc-fused human recombinant TCTP (Fc-HrTCTP) (human | rabbit) (UniProt P13693); assay: native gel or EMSA; Fc fusion proteins on a native gel, apparent molecular weights by a molecular size marker
[10] = target: TCTP in bronchoalveolar lavage fluid (BALF) of mice with airway inflammation (mouse (endogenous in BALB/c BALF)) (UniProt P63028); assay: non-reducing SDS-PAGE and Western blotting; BALF from OVA-OVA and N11TCTP-N11TCTP mice
[11] = target: the molecule itself; assay: non-reducing SDS-PAGE; purified proteins boiled with or without β-ME, 15% gel, coomassie brilliant blue; dimer by intermolecular disulfide bond
[12] = target: the molecule itself; assay: cell-based or functional assay

With “Del-N35TCTP (residues 35-172) (from UniProt P63029 35-172) (domain or fragment)” the stoichiometry N [1] was 2, the stoichiometry N [2] was 2 and the stoichiometry N [3] was 2. The stoichiometry N [4] was 2, the IL-8 secretion from BEAS-2B cells by BM(PEO)3-treated DTT-pretreated Del-N35TCTP, percent of DTT-untreated Del-N35TCTP (% of DTT-untreated Del-N35TCTP) [5] was 122 and the IL-8 secretion from BEAS-2B cells by BMOE-treated DTT-pretreated Del-N35TCTP, percent of DTT-untreated Del-N35TCTP (% of DTT-untreated Del-N35TCTP) [5] was 108. The IL-8 secretion from BEAS-2B cells by DTT-treated Del-N35TCTP, percent of DTT-untreated Del-N35TCTP (% of DTT-untreated Del-N35TCTP) [5] was 71.7.

Work on “rabbit Fc protein (Fc) (domain or fragment)” yielded a stoichiometry N [6] of 2.

Molecule “Del-N35TCTP-C172S (from UniProt P63029 35-172) (domain or fragment)” has a stoichiometry N (Del-N35TCTP-C172S (rat) [7]) of 2 and an IL-8 secretion from BEAS-2B cells, 5 µm/ml protein, 24 h, percent of wild-type (Del-N35TCTP) (% of wild-type) (Del-N35TCTP-C172S (rat) [8]) of 36.

In the case of “Fc-fused human recombinant TCTP (Fc-HrTCTP) (from UniProt P13693 1-172) (Fc fusion)”, the stoichiometry N [9] is reported as 2.

“TCTP in bronchoalveolar lavage fluid (BALF) of mice with airway inflammation (from UniProt P63028 1-172) (natural protein)” gave a stoichiometry N [10] of 2.

B1: Del-N11TCTP-C172S (domain or fragment, rat, UniProt P63029 11-172, looked up)
chain: DELFSDIYKIREIADGLCLEVEGKMVSRTEGAIDDSLIGGNASAEGPEGEGTESTVVTGVDIVMNHHLQETSFTKEAYKKYIKDYMKSLKGKLEEQKPERVKPFMTGAAEQIKHILANFNNYQFFIGENMNPDGMVALLDYREDGVTPFMIFFKDGLEMEKS
In the case of B1, the “stoichiometry N” value [11] is reported as 2 and the “IL-8 secretion from BEAS-2B cells, 5 µm/ml protein, 24 h, percent of wild-type (Del-N11TCTP)” value [12] is reported as 52 % of wild-type.

B2: Del-N11TCTP-C28S (domain or fragment, rat, UniProt P63029 11-172, looked up)
chain: DELFSDIYKIREIADGLSLEVEGKMVSRTEGAIDDSLIGGNASAEGPEGEGTESTVVTGVDIVMNHHLQETSFTKEAYKKYIKDYMKSLKGKLEEQKPERVKPFMTGAAEQIKHILANFNNYQFFIGENMNPDGMVALLDYREDGVTPFMIFFKDGLEMEKC
notes: No stop codon in the reverse primer
B2 was tested, and the “stoichiometry N” value [11] was 2.

B3: Del-N11TCTP (residues 11-172) (domain or fragment, rat, UniProt P63029 11-172, looked up)
chain: DELFSDIYKIREIADGLCLEVEGKMVSRTEGAIDDSLIGGNASAEGPEGEGTESTVVTGVDIVMNHHLQETSFTKEAYKKYIKDYMKSLKGKLEEQKPERVKPFMTGAAEQIKHILANFNNYQFFIGENMNPDGMVALLDYREDGVTPFMIFFKDGLEMEKC
notes: No stop codon in the reverse primer; also called Del-N11HRF
B3 was tested, and the “stoichiometry N” value [11] was 2.
